Experimental data reported in patent publication US20200270325A1 (Merck Sharp & Dohme, published 2020).
Numbered stars: 1 amine (or outer) side, 2 acyl side, 3 side chain; on linkers, the order of the positions; unused ones are H or OH. Square brackets hold non-standard residues; d marks the D form. Side chains are listed from the residue outwards. Ends that are not written are not given here. * marks the point of attachment. Phe(4-CH2NH2) = NCc1ccc(C[C@H](N)C(=O)O)cc1; C18 diacid = O=C(O)CCCCCCCCCCCCCCCCC(=O)*; C16 diacid = O=C(O)CCCCCCCCCCCCCCC(=O)*; γGlu = O=C(O)[C@H](CCC(=O)[*:2])N[*:1]; Met(O2) = CS(=O)(=O)CC[C@H](N)C(=O)O; αMeD = C[C@](N)(CC(=O)O)C(=O)O; αMeS = C[C@](N)(CO)C(=O)O; AEEA = NCCOCCOCC(=O)O; Aib = CC(C)(N)C(=O)O; C16 = lipid (C16)

B1: TP613 (peptide)
peptide: H[Aib]QGTFTSDYSKYLDERAAK([AEEA-AEEA-γGlu-C18 diacid])DFVQWL[Met(O2)][αMeD]T-NH2
modifications: N-terminus assumed
SMILES: CC(C)C[C@H](NC(=O)[C@H](Cc1ccc(O)cc1)NC(=O)[C@H](CCCCN)NC(=O)[C@H](CO)NC(=O)[C@H](Cc1ccc(O)cc1)NC(=O)[C@H](CC(=O)O)NC(=O)[C@H](CO)NC(=O)[C@@H](NC(=O)[C@H](Cc1ccccc1)NC(=O)[C@@H](NC(=O)CNC(=O)[C@H](CCC(N)=O)NC(=O)C(C)(C)NC(=O)[C@@H](N)Cc1c[nH]cn1)[C@@H](C)O)[C@@H](C)O)C(=O)N[C@@H](CC(=O)O)C(=O)N[C@@H](CCC(=O)O)C(=O)N[C@@H](CCCNC(=N)N)C(=O)N[C@@H](C)C(=O)N[C@@H](C)C(=O)N[C@@H](CCCCNC(=O)COCCOCCNC(=O)COCCOCCNC(=O)CC[C@H](NC(=O)CCCCCCCCCCCCCCCCC(=O)O)C(=O)O)C(=O)N[C@@H](CC(=O)O)C(=O)N[C@@H](Cc1ccccc1)C(=O)N[C@H](C(=O)N[C@@H](CCC(N)=O)C(=O)N[C@@H](Cc1c[nH]c2ccccc12)C(=O)N[C@@H](CC(C)C)C(=O)N[C@@H](CCS(C)(=O)=O)C(=O)N[C@@](C)(CC(=O)O)C(=O)N[C@H](C(N)=O)[C@@H](C)O)C(C)C
B2: TP583 (peptide)
peptide: H[Aib]QGTFTSDYSKYLDARAAQDFV[Phe(4-CH2NH2)]([AEEA-AEEA-γGlu-C18 diacid])WLLDT-NH2
modifications: N-terminus assumed
SMILES: CC(C)C[C@H](NC(=O)[C@H](Cc1ccc(O)cc1)NC(=O)[C@H](CCCCN)NC(=O)[C@H](CO)NC(=O)[C@H](Cc1ccc(O)cc1)NC(=O)[C@H](CC(=O)O)NC(=O)[C@H](CO)NC(=O)[C@@H](NC(=O)[C@H](Cc1ccccc1)NC(=O)[C@@H](NC(=O)CNC(=O)[C@H](CCC(N)=O)NC(=O)C(C)(C)NC(=O)[C@@H](N)Cc1c[nH]cn1)[C@@H](C)O)[C@@H](C)O)C(=O)N[C@@H](CC(=O)O)C(=O)N[C@@H](C)C(=O)N[C@@H](CCCNC(=N)N)C(=O)N[C@@H](C)C(=O)N[C@@H](C)C(=O)N[C@@H](CCC(N)=O)C(=O)N[C@@H](CC(=O)O)C(=O)N[C@@H](Cc1ccccc1)C(=O)N[C@H](C(=O)N[C@@H](Cc1ccc(CNC(=O)COCCOCCNC(=O)COCCOCCNC(=O)CC[C@H](NC(=O)CCCCCCCCCCCCCCCCC(=O)O)C(=O)O)cc1)C(=O)N[C@@H](Cc1c[nH]c2ccccc12)C(=O)N[C@@H](CC(C)C)C(=O)N[C@@H](CC(C)C)C(=O)N[C@@H](CC(=O)O)C(=O)N[C@H](C(N)=O)[C@@H](C)O)C(C)C
B3: TP610 (peptide)
peptide: H[Aib]QGTFTSDYSKYL[αMeD]ARAAK([AEEA-AEEA-γGlu-C18 diacid])DFVQWL[Met(O2)][αMeD]T-NH2
modifications: N-terminus assumed
SMILES: CC(C)C[C@H](NC(=O)[C@H](Cc1c[nH]c2ccccc12)NC(=O)[C@H](CCC(N)=O)NC(=O)[C@@H](NC(=O)[C@H](Cc1ccccc1)NC(=O)[C@H](CC(=O)O)NC(=O)[C@H](CCCCNC(=O)COCCOCCNC(=O)COCCOCCNC(=O)CC[C@H](NC(=O)CCCCCCCCCCCCCCCCC(=O)O)C(=O)O)NC(=O)[C@H](C)NC(=O)[C@H](C)NC(=O)[C@H](CCCNC(=N)N)NC(=O)[C@H](C)NC(=O)[C@](C)(CC(=O)O)NC(=O)[C@H](CC(C)C)NC(=O)[C@H](Cc1ccc(O)cc1)NC(=O)[C@H](CCCCN)NC(=O)[C@H](CO)NC(=O)[C@H](Cc1ccc(O)cc1)NC(=O)[C@H](CC(=O)O)NC(=O)[C@H](CO)NC(=O)[C@@H](NC(=O)[C@H](Cc1ccccc1)NC(=O)[C@@H](NC(=O)CNC(=O)[C@H](CCC(N)=O)NC(=O)C(C)(C)NC(=O)[C@@H](N)Cc1c[nH]cn1)[C@@H](C)O)[C@@H](C)O)C(C)C)C(=O)N[C@@H](CCS(C)(=O)=O)C(=O)N[C@@](C)(CC(=O)O)C(=O)N[C@H](C(N)=O)[C@@H](C)O
B4: TP614 (peptide)
peptide: H[αMeS]QGTFTSDYSKYLDARAAK([AEEA-AEEA-γGlu-C16 diacid])DFVQWL[Met(O2)][αMeD]T-NH2
modifications: N-terminus assumed
SMILES: CC(C)C[C@H](NC(=O)[C@H](Cc1ccc(O)cc1)NC(=O)[C@H](CCCCN)NC(=O)[C@H](CO)NC(=O)[C@H](Cc1ccc(O)cc1)NC(=O)[C@H](CC(=O)O)NC(=O)[C@H](CO)NC(=O)[C@@H](NC(=O)[C@H](Cc1ccccc1)NC(=O)[C@@H](NC(=O)CNC(=O)[C@H](CCC(N)=O)NC(=O)[C@](C)(CO)NC(=O)[C@@H](N)Cc1c[nH]cn1)[C@@H](C)O)[C@@H](C)O)C(=O)N[C@@H](CC(=O)O)C(=O)N[C@@H](C)C(=O)N[C@@H](CCCNC(=N)N)C(=O)N[C@@H](C)C(=O)N[C@@H](C)C(=O)N[C@@H](CCCCNC(=O)COCCOCCNC(=O)COCCOCCNC(=O)CC[C@H](NC(=O)CCCCCCCCCCCCCCC(=O)O)C(=O)O)C(=O)N[C@@H](CC(=O)O)C(=O)N[C@@H](Cc1ccccc1)C(=O)N[C@H](C(=O)N[C@@H](CCC(N)=O)C(=O)N[C@@H](Cc1c[nH]c2ccccc12)C(=O)N[C@@H](CC(C)C)C(=O)N[C@@H](CCS(C)(=O)=O)C(=O)N[C@@](C)(CC(=O)O)C(=O)N[C@H](C(N)=O)[C@@H](C)O)C(C)C
B5: TP611 (peptide)
peptide: HXQGTFTSDYSKYLDARAAXXFVQWLXXT
modifications: Aib (U) at 2; K(PEG2PEG2γEC18-OH) at 20; αMD at 21; L-methionine sulphone (2) at 27; αMD at 28; C-terminal amide
B6: TP602 (peptide)
peptide: H[Aib]QGTFTSDYSKYLDARAAQDFVQWL[Met(O2)]K([AEEA-AEEA-γGlu-C18 diacid])T-NH2
modifications: N-terminus assumed
SMILES: CC(C)C[C@H](NC(=O)[C@H](Cc1ccc(O)cc1)NC(=O)[C@H](CCCCN)NC(=O)[C@H](CO)NC(=O)[C@H](Cc1ccc(O)cc1)NC(=O)[C@H](CC(=O)O)NC(=O)[C@H](CO)NC(=O)[C@@H](NC(=O)[C@H](Cc1ccccc1)NC(=O)[C@@H](NC(=O)CNC(=O)[C@H](CCC(N)=O)NC(=O)C(C)(C)NC(=O)[C@@H](N)Cc1c[nH]cn1)[C@@H](C)O)[C@@H](C)O)C(=O)N[C@@H](CC(=O)O)C(=O)N[C@@H](C)C(=O)N[C@@H](CCCNC(=N)N)C(=O)N[C@@H](C)C(=O)N[C@@H](C)C(=O)N[C@@H](CCC(N)=O)C(=O)N[C@@H](CC(=O)O)C(=O)N[C@@H](Cc1ccccc1)C(=O)N[C@H](C(=O)N[C@@H](CCC(N)=O)C(=O)N[C@@H](Cc1c[nH]c2ccccc12)C(=O)N[C@@H](CC(C)C)C(=O)N[C@@H](CCS(C)(=O)=O)C(=O)N[C@@H](CCCCNC(=O)COCCOCCNC(=O)COCCOCCNC(=O)CC[C@H](NC(=O)CCCCCCCCCCCCCCCCC(=O)O)C(=O)O)C(=O)N[C@H](C(N)=O)[C@@H](C)O)C(C)C
B7: TP612 (peptide)
peptide: H[Aib]QGTFTSDYSKYL[αMeD]ARAAK([AEEA-AEEA-γGlu-C18 diacid])[αMeD]FVQWL[Met(O2)][αMeD]T-NH2
modifications: N-terminus assumed
SMILES: CC(C)C[C@H](NC(=O)[C@H](Cc1c[nH]c2ccccc12)NC(=O)[C@H](CCC(N)=O)NC(=O)[C@@H](NC(=O)[C@H](Cc1ccccc1)NC(=O)[C@](C)(CC(=O)O)NC(=O)[C@H](CCCCNC(=O)COCCOCCNC(=O)COCCOCCNC(=O)CC[C@H](NC(=O)CCCCCCCCCCCCCCCCC(=O)O)C(=O)O)NC(=O)[C@H](C)NC(=O)[C@H](C)NC(=O)[C@H](CCCNC(=N)N)NC(=O)[C@H](C)NC(=O)[C@](C)(CC(=O)O)NC(=O)[C@H](CC(C)C)NC(=O)[C@H](Cc1ccc(O)cc1)NC(=O)[C@H](CCCCN)NC(=O)[C@H](CO)NC(=O)[C@H](Cc1ccc(O)cc1)NC(=O)[C@H](CC(=O)O)NC(=O)[C@H](CO)NC(=O)[C@@H](NC(=O)[C@H](Cc1ccccc1)NC(=O)[C@@H](NC(=O)CNC(=O)[C@H](CCC(N)=O)NC(=O)C(C)(C)NC(=O)[C@@H](N)Cc1c[nH]cn1)[C@@H](C)O)[C@@H](C)O)C(C)C)C(=O)N[C@@H](CCS(C)(=O)=O)C(=O)N[C@@](C)(CC(=O)O)C(=O)N[C@H](C(N)=O)[C@@H](C)O

Molecular target: human Glucagon receptor (GCGR) (human, UniProt P47871 26-477)
Assay: cell-based or functional assay

human Glucagon receptor (GCGR), sequence (P47871 26-477): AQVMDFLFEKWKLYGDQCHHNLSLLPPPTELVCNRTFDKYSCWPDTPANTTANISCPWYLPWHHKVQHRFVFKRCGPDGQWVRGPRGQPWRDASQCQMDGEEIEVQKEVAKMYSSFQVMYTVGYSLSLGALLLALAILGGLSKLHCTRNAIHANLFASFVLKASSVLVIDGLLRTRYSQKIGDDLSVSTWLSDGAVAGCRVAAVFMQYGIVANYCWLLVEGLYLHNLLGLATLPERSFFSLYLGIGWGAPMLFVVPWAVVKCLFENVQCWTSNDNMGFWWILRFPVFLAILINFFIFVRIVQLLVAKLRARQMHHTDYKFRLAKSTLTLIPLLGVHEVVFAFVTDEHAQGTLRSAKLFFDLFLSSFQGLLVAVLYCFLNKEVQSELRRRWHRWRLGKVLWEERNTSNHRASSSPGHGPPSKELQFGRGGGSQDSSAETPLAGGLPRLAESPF

B1 and B2 cannot be ordered by “GCGR EC50 human” value: greater than 5 nM for the first, 6.37 nM for the second.

Going from H[Aib]QGTFTSDYSKYLDARAAQDFVQWL[Met(O2)][Phe(4-CH2NH2)]([AEEA-AEEA-γGlu-C20‑OH])T-NH2 [TP605] to B3, the “GCGR EC50 human” value falls from 3.75 nM to 0.19 nM (20-fold).

B4 and H[Aib]QGTFTSDK([γGlu-γGlu-C16])SKYLDARAAK([AEEA-AEEA-γGlu-C16 diacid])DFVQWL[Met(O2)]DT-NH2 [TP606] are within 1.5-fold of each other in “GCGR EC50 human” value: 0.86 nM for the first, 1.01 nM for the second.

Compared with B5, H[Aib]QGTFTSDK([γGlu-γGlu-C16])SKYLDARAAK([AEEA-AEEA-γGlu-C18 diacid])DFVQWL[Met(O2)]DT-NH2 [TP601] is 9-fold higher in “GCGR EC50 human” value: 0.2 nM for the first, 1.8 nM for the second.

First: H[Aib]QGTFTSDK([γGlu-γGlu-C16])SKYLDARAAQDFVK([AEEA-AEEA-γGlu-C16 diacid])WL[Met(O2)][αMeD]T-NH2 [TP607]
Second: H[Aib]QGTFTSDYSKYLDARAAQDFVQWL[Met(O2)]K([AEEA-AEEA-γGlu-C20‑OH])T-NH2 [TP603]
The “GCGR EC50 human” value of the first is 3.3-fold lower: 0.57 nM for the first, 1.88 nM for the second.

B6 and B7 are within 1.5-fold of each other in “GCGR EC50 human” value: 2.17 nM for the first, 2.04 nM for the second.

Molecular target: human GLP-1 receptor (GLP1R) (human, UniProt P43220 24-463)
Assay: cell-based or functional assay

First: B1
Second: B2
The “GLP1R EC50 human” value of the first is 4.5-fold higher: 3.34 nM for the first, 0.74 nM for the second.

First: H[Aib]QGTFTSDYSKYLDARAAQDFVQWL[Met(O2)][Phe(4-CH2NH2)]([AEEA-AEEA-γGlu-C20‑OH])T-NH2 [TP605]
Second: B3
The “GLP1R EC50 human” value of the first is lower: 1.98 nM for the first, greater than 5 nM for the second.

B4 and H[Aib]QGTFTSDK([γGlu-γGlu-C16])SKYLDARAAK([AEEA-AEEA-γGlu-C16 diacid])DFVQWL[Met(O2)]DT-NH2 [TP606] are within 1.5-fold of each other in “GLP1R EC50 human” value: 1.4 nM for the first, 1.84 nM for the second.

B5 and H[Aib]QGTFTSDK([γGlu-γGlu-C16])SKYLDARAAK([AEEA-AEEA-γGlu-C18 diacid])DFVQWL[Met(O2)]DT-NH2 [TP601] cannot be ordered by “GLP1R EC50 human” value: greater than 5 nM for the first, 8.5 nM for the second.

H[Aib]QGTFTSDK([γGlu-γGlu-C16])SKYLDARAAQDFVK([AEEA-AEEA-γGlu-C16 diacid])WL[Met(O2)][αMeD]T-NH2 [TP607] and H[Aib]QGTFTSDYSKYLDARAAQDFVQWL[Met(O2)]K([AEEA-AEEA-γGlu-C20‑OH])T-NH2 [TP603] are within 1.5-fold of each other in “GLP1R EC50 human” value: 1.06 nM for the first, 1.17 nM for the second.

First: B6
Second: B7
The “GLP1R EC50 human” value of the first is 14-fold lower: 0.36 nM for the first, 4.95 nM for the second.
